# Experimental data as given in article doi:10.1101/2021.01.25.428038 (bioRxiv, 2021).
# B1: hTMIGD1-Fc (extracellular domain of hTMIGD1, AA 1-222, fused to the Fc-part of human IgG) (Fc fusion)
# chain: VLTVNGKTENYILDTTPGSQASLICAVQNHTREEELLWYREEGRVDLKSGNKINSSSVCVSSISENDNGISFTCRLGRDQSVSVSVVLNVTFPPLLSGNDFQTVEEGSNVKLVCNVKANPQAQMMWYKNSSLLDLEKSRHQIQQTSESFQLSITKVEKPDNGTYSCIAKSSLKTESLDFHLIVKDKTVGVPIE
# Target: the molecule itself
# Assay: bead aggregation assay
protein,measurement,value
B1,binding result,binds
